Measurements published in patent US10765739B2, “Use of MIF and MIF pathway agonists” (Yale University, priority 2006, dated 2020).

Experiments:
AMPK [1] = experiment: AMPK Thr172 phosphorylation (immunoblot densitometry) in isolated heart papillary muscles; assay type: cell-based, rat; details: normoxic heart muscles
Experimental: (§1) Briefly, rat heart anterior and posterior left ventricular papillary muscles (3-5 mg) were equilibrated in oxygenated Dulbecco's phosphate-buffered saline (PBS) containing 1 mM MgCl2 […], glucose, and 1% BSA. Unless otherwise noted, 100% oxygen flowed continuously through sealed muscle incubation containers while muscles were kept in an oscillating water bath at 37° C., and experiments began after a 15 minute equilibration period in these conditions. During incubations designed to examine the effects of hypoxia, muscles were transferred to incubation containers gassed with N2 for 30 minutes. In incubations with rMIF (0-800 ng/ml), anti-MIF blocking antibody (100 μg/ml), and/or non-immune rabbit IgG (100 μg/ml); Sigma, USA), these compounds were added for 30-120 minutes. At the end of experiments, muscles were freeze clamped and stored in liquid nitrogen until further analysis, unless otherwise specified.
(§2) Immunoblots were performed according to standard methods known in the art. See, for example, Li et al., Am. J. Physiol Endocrinol Metab 287, E384 (2004) and Baron et al., Circ Res (Jan. 13, 2005). Heart homogenate proteins were combined with Laemmli sample buffer prior to resolution by SDS-PAGE, transferred onto polyvinylidene difluoride membranes, immunoblotted, detected with enhanced chemiluminesence, and quantified by densitometry.

[2] = system: rat heart left ventricular papillary muscles; experiment: 2-deoxy-[1-3H]glucose uptake in isolated heart papillary muscles; assay type: cell-based; details: normoxic heart muscles, 0-800 ng/ml for 60 minutes
Experimental: as §1
To further support MIF's role in modulating the AMPK pathway, we added recombinant human MIF (rMIF) to intact normoxic heart muscles. Papillary muscles were isolated as above. […]

GLUT4 = experiment: Cell-surface GLUT4 content of papillary muscles by bio-LC-ATB-BGPA photolabel; assay type: cell-based, rat; details: 400 ng/ml for 60 minutes
Experimental: as §1, with “At the end of experiments, muscles were freeze clamped and stored in liquid nitrogen until further analysis, unless otherwise specified.” left out
Glucose uptake is primarily mediated by the glucose transporter, GLUT4, and AMPK-stimulation of glucose transport is due to the translocation of GLUT4 vesicles to the cell surface, where GLUT4 is physiologically active (Sun et al., Circulation 89, 793 (1994); Young et al., Circulation 95, 415 (1997)). Thus, we assessed the cell-surface GLUT4 content of heart muscles after incubation with rMIF, utilizing a cell-membrane impermeant biotinylated glucose transporter photolabel (bio-LC-ATB-BGPA). […]

AMPK [3] = experiment: Hypoxic AMPK phosphorylation in human dermal fibroblasts by MIF promoter genotype; assay type: cell-based; details: 10 ng/ml during 9 hours of hypoxia
Experimental: as §2
To isolate human fibroblasts, human foreskin samples were obtained from the Yale Human Cell Resource Center (Department of Dermatology) in accordance with the Yale Human Investigations Committee. Fibroblasts were cultured in DMEM supplemented with 10% fetal bovine serum (FBS), penicillin (100 IU/ml) and streptomycin (100 μg/ml) at 37° C. Cells were studied at 80% confluence, and on the day prior to experiments, culture media was changed to DMEM with 1% FBS. Early passage fibroblasts were either subjected to 9 hours of hypoxia by incubation in an air-tight chamber gassed with 95% nitrogen/5% CO2 or control incubation in room air.
To confirm that relative MIF deficiency was responsible for impaired hypoxic AMPK activation in the low-expressing 5/5 genotype fibroblasts, we investigated the effect of adding human rMIF (10 ng/ml) to the culture media during hypoxic incubation.

B1: rMIF: recombinant human MIF (macrophage migration inhibitory factor), the preferred MIF agonist (protein, UniProt P14174 2-115, looked up)
Macrophage migration …: PMFIVNTNVPRASVPDGFLSELTQQLAQATGKPPQYIAVHVVPDQLMAFGGSSEPCALCSLHSIGKIGGAQNRSYSKLLCGLLAERLRISPDRVYINYYDMNAANVGWNNSTFA
For B1, the “AMPK Thr172 phosphorylation” value (AMPK [1]; 0-400 ng/ml, 0-120 minutes) was “time- and dose-dependent increase”, the “maximal AMPK activation (AMPK Thr172 phosphorylation)” value (AMPK [1]; 400 ng/ml incubated for 60 minutes) was 1.5-2.0 fold increase and the glucose uptake [2] was “increase”. For the same molecule, the “cell-surface GLUT4” value (GLUT4) was “increased”, the “hypoxic AMPK signaling (AMPK phosphorylation)” value (AMPK [3]; 5/5 genotype fibroblasts) was “rescued” and the AMPK phosphorylation (AMPK [3]; hypoxic non-5/5 genotype fibroblasts) was “no additional effect”.
